According to the nanobody polyreactivity screen of Harvey et al. (2022):

Assay: yeast display, Sf9 membrane polyspecificity reagent, FACS + sequencing; frameworks hold sequencing errors
Method in brief: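 Sorting gates, low and high (top ~1%), were placed on anti-HA fluorescence to track expression and on streptavidin fluorescence to track reagent binding. A clone's polyreactivity label is taken from the gate it came out of. The reagent was 10% biotinylated, detergent-solubilized Sf9 membrane, applied for 1 hour at 4 °C to galactose-induced yeast display cells.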

Row | Sequence | polyreactivity (PSR sort gate)
1 | QVQLVESGGGIVQAGGSLRLSCAASAIIFLDNPMGWSRQAPGKERELVADITSSGGSTYYADSVKGRFTISRDNAKNTVSLQMNSLKPEDTAVYYCAKYVYGKFDGVRFSYDYWGQGTQVTVSS | low polyreactivity
2 | QVQLVESGGGLVQAGGSLRLSCAASGSIFSNYAMGWYRQAPGKERELVAAITWSGDDTYYADSVKGRFTISRDNAKTTVYLQMNSLKPVDTAVYYCAAEYHGYRYNYYPYSHYFIYESWGQGTQVTVSS | high polyreactivity
3 | QVQLVESGGGLVQAGGSLRLSCAASGRTFPIYAMGWYRQAPGKERELVAAITYSGGSTYYADSVKGRFTISRDNAKNTVYLQMNSLKPEDTAVSYCAVDGTKPYWHQRYDYWGQGTLVTVSS | low polyreactivity
4 | QVQLVESGGGLVQAGGSLRLSCAASGINFQNYAMGLYRQAPGKEREFVASISFSGASTYYADSVKGRFTISRDKAKNTVYLQMNSLKPDDTAVYYCAARYLYGPKYYYWGQGTQVTVSS | high polyreactivity
5 | QVQLVESGGGLVQAGGSLRLSCAASGSTFAIYAMGLYRQAPGKERELVAAITRSGGNTYYAESVKGRFTISRDNAKNTVYLQMNSLKPEDTAVYYCNAETYYWSAYAQYEYWGQGTQVTVSS | high polyreactivity
6 | QLQLVESGGGLVQAGGSLRLSCAASGRIFQSYALGWYRQAPGKESELVAGIRAGGGRTYYADSVKGRFTISRDNAKNTVYLQMNSLKPEDTAVYYCATDFYPRYLLRTYRPYYYWGQGTQVTVSS | low polyreactivity
7 | QVQLVESGGGLVQAGGSLRLSCAASGITLTKNAMGWYRQAPGKERELVAGITRGSRTNYADSVKGRFTISRDNAKNSVYLQMNSLIPEDTAVYYCAASYWPYRGPVGGSKMYFWGQGTQVTVSS | high polyreactivity
8 | QVQLVESGGGLVQAGGSLRLSCAASGIIFHGNAMGWYRQAPGKERELVAAIRWSGGSTYYADSVKGRFTISRDNAKNSVYLPMNSLKPEDTAVYYCNAGRSWRRTHYDYWGQGTQVTVSS | high polyreactivity
9 | QVQLVESGGGLVQAGGSLRLSCAASGFTFAWNAKGWYRQAPGKERELVAAINRSGGSTKYADSVKGRFTISRDNAKNTVYLQMNSLKPEDTAVYFCNKYQLVRTYGSYSYYYWVQGTQVTVSS | high polyreactivity
10 | QVQLVESGGGLVQAGGSLRLSCAASGLTCTRNAMGWYRQAPGKEREFVAAIRWSAGSTYYADSVKGRFTISRDNAKNTVYLQMNSLTPEDTAVSYCNAALNVSGHYPNDYWGQGTQVTVSS | low polyreactivity
11 | QVHLVESGGGLVQAGGSLRLSCAASGRISYFYAMGWYRQAPGKESELVATITTSAGRTYYADSVKGRFTISRDNAKNTVYLLMNSLKPEDTAVYYCAASRYTYPYNYWGQGTQVTVSS | high polyreactivity
12 | QVQLVESGGGLVQAGASLRLSCAASGFTFGINAMGWYRQAPGKERELVATISTRGGTTHYADSVKGRFTISRDNAKNTVYLQMNRLKPEDTAVYYCAVERGTFRSGFAYEYYYWGQGTQVTVSS | low polyreactivity
13 | QGQRVESGGGLVQAGASLRLSCAASGFIFWEYAMGWSRQAPGKERELVAAISDSGGDTYYADSVKGRFTISRDNAKNTVYLEMHSLKPEDSAVYFCAADVELWVFRGQQYDYWGQGTQVTVSS | low polyreactivity
14 | QDQLGESGGGLVQAGGSLRLSGAASGSTFSRNAMGWYRQAPGKERELVAAISRSGGSTHYADSVKGRFTISRDNAKNTVYLQMNSQKPEDTAVYYCAARVPRGDLPGYHYAYYYWGQGTQVTVSS | high polyreactivity
15 | QVQLVESGGGLVQAGGSLRLSCAASGRIFVDYAMGWERQAPGKERELVAAITYGGGSTHYADSVKGRFTISRDNAKNTVYLQMNSLKPEDTAVYYCAADLFYHSYGYEYWGQGTQGTVSS | low polyreactivity
16 | QVQLVESGGGLVQAGGSLRLSCAASGRTFKGYAMGWYRQAPGKERELVAAISYRGGSTYYADSVKGRFTISRDNAKNTVYLQMNSLKPEDTAVYYCAARWNRGRYDYWGQGTQVTVSS | high polyreactivity
17 | QVQLVESGGGLVQAGGSLRLSCAASGITFSVYAMGWYRQAPGTERELVAAISGSAGSTYYADSVKGRFTISRDNAKNTVYLQLNSLKPEDTAVYYCAARLAPKYSPSSYNYWGEGTQVTVSS | high polyreactivity
18 | QVQLVESGGGLVQAGGSLRLSCAASGSTFSANAMGWYRQAPGKERELVAAISRRGGSTNYADSVKGRFTISRDNAKNTVYLQMNSLKPEDTAVYYCAALYVPRSPFSYDYWGQGTQVTVSS | high polyreactivity
19 | QVQLVESGGGLVQAGGSLRLSCAASGRIFRDYAMGWYRQAPGKERELVAAITRSGDTTYYADSVKGRFTISRDNAKNTVYLQMNSLKPEDTAVYYCAARYVSRYYVYRGFEYWGQGTQVTVSS | high polyreactivity
20 | QVQLVESGGGLVQAGGSLRLSCAASGFNCATNYMGWYRQAPGKERELVAAITKGGGRTYYADSVKGRFTISRDNAKNTVYLQMNSLKPEDTAVYYCAARQLIKYDYWGQGTQVTVSS | low polyreactivity
21 | QVQLVESGGGLVQAGGSLRLSCAASGRTFKFYAMGWYRQAPGKERELVATITSGGSTYYADSVKGRFTISRDNAKNTVYLQMNSLKPEDTAVYYCNKRYRKPGSGWYDSWGQGTQVTVSS | high polyreactivity
22 | QVQLVESGGGLVQAGGSLRLSCAASGRTFPGNAMGWYRQAPGKEREFFAAITRSGGSTYADSVKGRFTISRDNAKNTVYLQMNSLKPEDTAVSYCAATFKWYSHTKPRFDYWGQGTKVTVSS | low polyreactivity

Row | Sequence | polyreactivity (PSR sort gate)
23 | QVQLVESGGGLVQAGGSLRLSCAASGRTFGYYAMGWYRQAPGKERELVAAISSRSSTTYYADSVKGRFTISRDNAKNTVYLQMNSLKTEDNAVYYCNVAYGEWKTFDYWGQGTQVTVSS | high polyreactivity
24 | QVQLVESGGGLVQAGGSLRLSCAASGSIFSVYAMGWYRQAPGKERELVASITSGGRTKYADSVKGRFTISRDNAKNTVYLQMNSLKQEDTAVYYCAKDGGGLLRWYTDEYDYWGQGTQVTVSS | low polyreactivity
25 | QVQLVESGGGLVQAGGSLRLSCAASGGNFERNAMGWYRQAPGKERELVAAITGSGGRTYYADSVKGRFTISRDNAKITVYLQMNSLKPEDTAVYFCAAVPWWKYKYWGQGTQVTVSS | high polyreactivity
26 | QVQLVESGGGLVQAGGSLRLSCAASGFTFYDYVMGWYRQAPGKERELVASISARTGSTYYADSVKGRFTISRDNAKNTVYLQMNSLQPEDTAVYYCAADDGQYYRTEYDYWGQGTQVTVSS | low polyreactivity
27 | QVQLVESGGGLVQAGGSLRLSCAASGFILGSNAMGWYRQAPGKERELVAAISRSGGSTYYADSVKGRFTISRDNAKNTVYLQMNSLKPEDTAVYYCNRVASVRARDYDYWGQGTQVTVSS | high polyreactivity
28 | QVQLVESGGGLVQAGGSLRLSCAASGFILRAYAIGWYRQAPGKERELVAAITSATSTNYADSVKGRFTISRDNAKNTVYLQMNSLKPEDTAVYYCAADGGGGEFSYDSWGQGTQVTVSS | low polyreactivity
29 | QVQLVESGGGIVQAGGSLRLSCAASGSTFGAYPMAWYRQAPGTERELVAVITRTGSTYADSVKGRFTISRDNAKNTVYLQMNSLKPVDTAVYYCNADYYVSRLYDYQVYSYRYDYWGQGTKVTVSS | high polyreactivity
30 | QVQLVESGGGLVQAGGSLRLSCAASGRIFGPYTMAWYRQAPRKERELVAAISRRGGSTYYADSVKGRFTISRDNAKNTVYLQMTSLKPEDTAVYYCAAKIYFLAILYDYWGQGTQVTVSS | high polyreactivity
31 | QFQLVESGRGLVQAGGSLRLICAASGSIFIPYAMGWYRQAPGKERELVAAISSSGSTYYADSVKGRFTISRDNAKNTVYLQMNSLKPEDTAVYYCAAERHYSYSSYDYWGQGTQVTVSS | low polyreactivity
32 | QVQLVESGGGLVQAGGSLRLSCAASGSNFSYYTMGWYRQAPGKERELVAAISTSGGSTYYADSVKGRFTISRDNAKNTVYLQMNSLKPEDTAVYYCAARYGRYYKYNYWGQGTQVTVSS | high polyreactivity
33 | QVQLVESGGGLVQAGGSLRLSCAASGFTFRGNAMGWYRQAPGKERELVAAITSSGGRTYYADSVKGRFTISRDNAKNTVYLQMNSLKPVDTAVYYCAARYAYPSRYYYWGQGTQGTVSS | high polyreactivity
34 | QVQVVESGGGLVHAVCSLRLSCAASGRIFSTYALGLYRPAPGKERELVAAISSSGARTYYADSVKGRFTISRDNAKNNVYLQMNSLKPEDTSVYYCAAPPYNRPGYGYDYWGQGTQVTVSS | high polyreactivity
35 | QVQLVESGGGLVQAGGSLRLSCAASGSSFGRYVMGSYRPAPGKERELVAAIRSRGGSTYYADSVKGRFTISRDIAKNTVYLQMNSLKPEYTAVYYCNDVDRKPYRTYDYWGQGTQVTVSS | high polyreactivity
36 | QVQLVESGGGLVQAGGSLRLSCAASGSTLITNDMGWYRQAPGKERELVATITYGTGSTYYADSVKGRFTISRDNAKNTVYLQMNSLKPEDTAVYYCNARRNYPKDSDGYDYWGQGTQVTVSS | low polyreactivity
37 | QVQLGESGGGLVQAGGSLRLSCAASGSTFKLYAMGWYRQAPGKERELVAAIRGSGGRTYYADSVKGRFTISRDNAKNTVYLQMNSLKPEDTAVYYCAAAYIGVWKYDSWGQGTQVTVSS | high polyreactivity
38 | QVQLVESGGGLVQAGGSLRLISPASRFTFRYYAMGWYRQAPGKERELVAAISRGGTTNYADSVKGRFTISRDNAKNTVYLQMNSLKPEDTAVYYCATTRYDYWGQGTQVTVSS | high polyreactivity
39 | QVQLVESGGGLFQARGSLRLSCAASGLTFWYYDMGWYRQAPGKERELFAAINSGGSTYYADSEKGRFTISRDNAKNTVYLEINRLKPEDTAVYYCNKDFSKTWRYASYYYWGQGTQVTVSS | low polyreactivity
40 | QVQLVESGGGLVQAGGSLRLSCAASGSTLRPYGMGWYRQATGKERELVPTIRSSSGRTYYADSVKGRFTISRDNAKNTVYLLMNSLKPDDTAVYYCNAKYVWYTQRDAYIYDYWGQGTQVTVSS | high polyreactivity
41 | QVQLVESWGGLFQAGGSLRLSCAASGRIWWNAMGWYIQSPGKERELVAAIRWSGGITRYADSVKGRFTFSGDNAKNTVYLQMKSLKPEDTAVYYCAARRNTVTGYQYYYWGQGTQVSVSS | high polyreactivity
42 | QVQLVESGGGLVQAGGSLRLSCAATGSTFASYAMGWYIQAPGKERELVAAITNGGSTNYADSVKGRFTISRDNAKNNVYLQMNSLNPEDTAVYYCAAYDGFPRRYDYWGQGTQVTVSS | low polyreactivity
43 | QVQLVESGVGLVQAGGSLRLSCASSGSIFGRYTMGWYRQAPGKERELVAAITLRGGSTYYADSVKGRFTISRDNAKNTVYLQMNSLNQEDSAVYYCANDGWKQSAYDYWGQGTQVTVSS | low polyreactivity
